Tests used:
IL-6R = target: T1, IL-6R (Homo sapiens, UniProt P08887); details: dose-dependent manner; Nishimoto et al; cited from earlier work
T1 sequence (P08887 20-468): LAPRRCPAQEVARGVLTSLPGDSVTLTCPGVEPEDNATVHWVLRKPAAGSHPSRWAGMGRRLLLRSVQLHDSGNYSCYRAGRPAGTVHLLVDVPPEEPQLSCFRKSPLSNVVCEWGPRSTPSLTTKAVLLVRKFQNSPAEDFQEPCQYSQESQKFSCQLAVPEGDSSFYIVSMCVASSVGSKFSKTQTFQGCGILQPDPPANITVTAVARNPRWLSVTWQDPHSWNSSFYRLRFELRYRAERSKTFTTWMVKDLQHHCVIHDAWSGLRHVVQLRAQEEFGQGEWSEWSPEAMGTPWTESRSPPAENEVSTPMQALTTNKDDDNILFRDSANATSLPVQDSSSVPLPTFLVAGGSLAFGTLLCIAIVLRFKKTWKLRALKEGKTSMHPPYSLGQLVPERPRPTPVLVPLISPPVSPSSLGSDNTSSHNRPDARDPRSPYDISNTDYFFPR

TF-1 cells = experiment: Stimulation of TF-1 cell proliferation by rhIL-6 (control experiments); format: cell-based, human
Method: TF-1, a GM-CSF dependent human erythroleukemia cell line, was purchased from ATCC(CRL-2003). IL-6 is a potent stimulator of TF-1 cell proliferation. The use of TF-1 cells for determining efficacy of IL-6, IL-6R, and/or gp130 inhibitors is well-established in the art.
TF-1 cells were maintained in growth medium (RPMI 1640 supplemented with 50 uM 2-ME, antibiotic-antimycotic), 10% FBS and 5 ng/ml hGM-CSF (Leukine). Prior to assay, TF-1 cells were washed and cultured overnight in growth medium plus 1% FBS and Leukine. TF-1 cells were then washed three times with growth medium plus 1% FBS, without Leukine prior to the assay.
TF-1 cells (1×10^4/well) were cultured in the presence or absence of the anti-IL-6 inhibitors-hIL-6 mixture in a 96-well flat bottom plate (Becton Dickinson) in a final volume of 200 ul/well for 40 hr in a humidified incubator at 37° C., 5% CO2. Cells were pulse-labeled with 1 uCi/well of [^3H]-Thymidine (Amersham Biosciences) during the final 16 hr of culture. Plates were harvested with a semiautomatic cell harvester (Tomtec, Inc.) and [^3H]-Thymidine incorporation was measured using a Microbeta-counter (Wallac-Perkin Elmer). Results are expressed as average cpm from triplicate wells.
Control experiments determined 0.2 ng/mL as the EC50 of rhIL-6 for stimulation of TF-1 cell proliferation.

[1] = test system: Human heparinized-whole blood; experiment: IL-6 stimulation of IgE in human whole blood; format: cell-based; details: 50 ng/ml IL-6, 6.5 hr; compared to unstimulated controls or anti-IL-6 mAb controls
Method: Human heparinized-whole blood was obtained from six normal individuals from Stanford University Blood Bank. The avimer used in these experiments was generated as described in the above examples.
Briefly, 500 ul of heparinized human blood from several donors was cultured in 12×75 mm tubes or individual wells of a 24 well plate in the presence of 50 ng/ml of human IL-6; exemplary IL-6/IgG binding tetramers, a negative control avimer, 0.01-600 nM; anti-IL-6 monoclonal antibody (Clone 6708-111, R&D Systems) or mouse IgG1 isotype control antibody (eBioscience), 3, 10 or 30 ug/ml, or no inhibitors. Inhibitors or controls were diluted in RPMI1640+10% human AB serum before addition to the cultures. Final volume was 1 ml per sample.
Samples were incubated for 6.5 hr at 37° C. with 5% CO2. Samples were removed from incubator and centrifuged at 1500 rpm for 10 minutes at room temperature. Plasma samples were divided in two portions and one set was shipped to Rules Based Medicine for determination of the concentrations of IL-6- and avimer-regulated analytes. The second set of plasma samples was stored at −80° C.

Row | Substance | HDL increase (IL-6R) | LDL increase (IL-6R) | EC50 for stimulation of TF-1 cell proliferation (TF-1 cells) | increase of IgE concentration in supernatants [1]
1 | MRA: humanized anti-IL-6R antibody (MRA) | ~26% | 12-23% |  | 
2 | rhIL-6: recombinant human IL-6 (R&D Systems) |  |  | 0.2 ng/mL | 2-3 fold
